According to the supplement of paper PMC9233669:
This sample holds only a part of the variants without activity.

Experiments:
biotinyl-Phe-oxazolone = test: self-aminoacylation, catalytic enhancement (BFO) (fold over background); higher = more active; k-Seq, kA / k0A0; sequences stand for … in GGGAAUGGAUCCACAUCUACGAAUUC…UUCACUGCAGACUUGACGAAGCUG
How it was run: (§1)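 Mutagenized RNA pools with a 21-nt variable region (0.43 μM) were reacted with each biotinyl-aminoacyl-oxazolone at 2–1250 μM for 90 minutes at room temperature, in 50 μL HEPES/NaCl/KCl/MgCl2/CaCl2 buffer containing 5% acetonitrile at pH 6.9–7.0. RNA captured on streptavidin was quantified by triplicate qPCR and by Illumina sequencing. The fraction reacted for each sequence was fit to a pseudo-first-order model with bootstrapping, and catalytic enhancement is the median kA divided by the uncatalyzed rate, taken as the low-activity peak of a bimodal Gaussian fit.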

biotinyl-Trp-oxazolone = test: self-aminoacylation, catalytic enhancement (BWO) (fold over background); higher = more active; k-Seq, kA / k0A0; sequences stand for … in GGGAAUGGAUCCACAUCUACGAAUUC…UUCACUGCAGACUUGACGAAGCUG
How it was run: as §1

biotinyl-Met-oxazolone = test: self-aminoacylation, catalytic enhancement (BMO) (fold over background); higher = more active; k-Seq, kA / k0A0; sequences stand for … in GGGAAUGGAUCCACAUCUACGAAUUC…UUCACUGCAGACUUGACGAAGCUG
How it was run: as §1

biotinyl-Ile-oxazolone = test: self-aminoacylation, catalytic enhancement (BIO) (fold over background); higher = more active; k-Seq, kA / k0A0; sequences stand for … in GGGAAUGGAUCCACAUCUACGAAUUC…UUCACUGCAGACUUGACGAAGCUG
How it was run: as §1

biotinyl-Leu-oxazolone = test: self-aminoacylation, catalytic enhancement (BLO) (fold over background); higher = more active; k-Seq, kA / k0A0; sequences stand for … in GGGAAUGGAUCCACAUCUACGAAUUC…UUCACUGCAGACUUGACGAAGCUG
How it was run: as §1

biotinyl-Val-oxazolone = test: self-aminoacylation, catalytic enhancement (BVO) (fold over background); higher = more active; k-Seq, kA / k0A0; sequences stand for … in GGGAAUGGAUCCACAUCUACGAAUUC…UUCACUGCAGACUUGACGAAGCUG
How it was run: as §1

| Sequence | self-aminoacylation (biotinyl-Phe-oxazolone) | self-aminoacylation (biotinyl-Trp-oxazolone) | self-aminoacylation (biotinyl-Met-oxazolone) | self-aminoacylation (biotinyl-Ile-oxazolone) | self-aminoacylation (biotinyl-Leu-oxazolone) | self-aminoacylation (biotinyl-Val-oxazolone) |
| --- | --- | --- | --- | --- | --- | --- |
| CCACCCUUCAAGCAAGCGGUC [Fam1B.1 aminoacylation ribozyme variant] | 0.522 | 0.963 | 1.25 | 1.01 | 1.36 | 1.4 |
| CCACCCUUCAAGCAAUCGGUA [Fam1B.1 aminoacylation ribozyme variant] | 0.981 | 2.06 | 1.38 | 1.4 | 1.59 | 1.6 |
| CCACCCUUCGAGCAAUCGGUC [Fam1B.1 aminoacylation ribozyme variant] | 0.944 | 2.58 | 1.94 | 1.49 | 1.34 | 2.06 |
| CCACCCUUGAAGCAAUCGGUC [Fam1B.1 aminoacylation ribozyme variant] | 0.764 | 1.34 | 0.972 | 1 | 1.12 | 1.74 |
| CCACGCUUCAAGCAAUAGGUC [Fam1B.1 aminoacylation ribozyme variant] | 0.752 | 0.367 | 0.597 | 0.51 | 0.475 | 0.577 |
| CCACGCUUCAAGCAAUCGGUC [Fam1B.1 aminoacylation ribozyme variant] | 76.9 | 39.9 | 1.37 | 1.2 | 2.11 | 1.54 |
| CCACGCUUCAAGCAAUGGGUC [Fam1B.1 aminoacylation ribozyme variant] | 0.735 | 0.419 | 0.537 | 0.646 | 0.627 | 0.656 |
| CCACGCUUCAAGCACUCGGUC [Fam1B.1 aminoacylation ribozyme variant] | 0.769 | 0.81 | 0.938 | 0.855 | 0.819 | 1.29 |
| CCACGCUUCAUGCAAUCGGUC [Fam1B.1 aminoacylation ribozyme variant] | 0.756 | 0.507 | 0.782 | 0.812 | 0.749 | 1.06 |
| CCACUACAAACAAUCGGUCUG [Fam1A.1 aminoacylation ribozyme variant] | 1.38 | 0.734 | 0.764 | 1.02 | 1.14 | 1.12 |
| CCACUCCUCAAGCAAUCGGUC [Fam1B.1 aminoacylation ribozyme variant] | 1.26 | 1.26 | 0.986 | 1.07 | 0.845 | 1.23 |
| CCACUCUUAAAGCAAUCGGUC [Fam1B.1 aminoacylation ribozyme variant] | 0.711 | 0.693 | 0.911 | 1.06 | 0.993 | 1.01 |
| CCACUCUUCAAGCAAUCGGUG [Fam1B.1 aminoacylation ribozyme variant] | 23.1 | 5.05 | 4.76 | 3.43 | 7.12 | 3.46 |
| CCACUCUUCAAGCAAUGGGUC [Fam1B.1 aminoacylation ribozyme variant] | 0.667 | 0.647 | 0.953 | 0.877 | 0.911 | 0.859 |
| CCACUCUUCAAGCAAUUGGUC [Fam1B.1 aminoacylation ribozyme variant] | 0.992 | 0.809 | 0.63 | 0.831 | 0.729 | 0.95 |
| CCACUCUUCAAGCACUCGGUC [Fam1B.1 aminoacylation ribozyme variant] | 0.56 | 0.816 | 1.15 | 1.02 | 1.04 | 0.928 |
| CCACUCUUCAAGCCAUCGGUC [Fam1B.1 aminoacylation ribozyme variant] | 0.734 | 0.953 | 1.1 | 1.09 | 1.15 | 1.21 |
| CCACUUCAAACAAUCGGUCCG [Fam1A.1 aminoacylation ribozyme variant] | 38.5 | 16.8 | 1.18 | 1.08 | 1.59 | 1.49 |
| CCACUUCAAACAAUGGGUCUG [Fam1A.1 aminoacylation ribozyme variant] | 0.725 | 0.691 | 0.887 | 1.07 | 0.97 | 1.03 |
| CCACUUCAACCAAUCGGUCUG [Fam1A.1 aminoacylation ribozyme variant] | 73.2 | 36.4 | 1.7 | 1.68 | 2.76 | 2.01 |
| CCACUUCAGACAAUCGGUCUG [Fam1A.1 aminoacylation ribozyme variant] | 1.67 | 1.71 | 1.66 | 1.62 | 1.33 | 1.65 |
| CCACUUCUAACAAUCGGUCUG [Fam1A.1 aminoacylation ribozyme variant] | 0.834 | 0.68 | 0.758 | 0.858 | 0.875 | 0.897 |
| CCAGACUUCAAGCAAACGGUC [Fam1B.1 aminoacylation ribozyme variant] | 0.824 | 0.814 | 0.591 | 0.706 | 0.628 | 0.811 |
| CCAGACUUCAAGCAAUCCGUC [Fam1B.1 aminoacylation ribozyme variant] | 1.19 | 1.95 | 1.47 | 1.67 | 1.45 | 1.58 |
| CCAGACUUCAAGCAAUCGGUC [Fam1B.1 aminoacylation ribozyme variant] | 43.9 | 26 | 1.42 | 1.45 | 2.04 | 1.54 |
| CCAGACUUCAAGCAAUCGGUU [Fam1B.1 aminoacylation ribozyme variant] | 7.61 | 6.59 | 2.04 | 2.02 | 2.69 | 2.43 |

| Sequence | self-aminoacylation (biotinyl-Phe-oxazolone) | self-aminoacylation (biotinyl-Trp-oxazolone) | self-aminoacylation (biotinyl-Met-oxazolone) | self-aminoacylation (biotinyl-Ile-oxazolone) | self-aminoacylation (biotinyl-Leu-oxazolone) | self-aminoacylation (biotinyl-Val-oxazolone) |
| --- | --- | --- | --- | --- | --- | --- |
| CCAGACUUCAAGCAAUCGUUC [Fam1B.1 aminoacylation ribozyme variant] | 1.08 | 0.853 | 0.78 | 1.06 | 0.764 | 0.849 |
| CCAGACUUCAAGCAAUCUGUC [Fam1B.1 aminoacylation ribozyme variant] | 0.591 | 0.309 | 0.444 | 0.467 | 0.45 | 0.576 |
| CCAGACUUCAAGCAGUCGGUC [Fam1B.1 aminoacylation ribozyme variant] | 1.4 | 1.39 | 1.1 | 1.48 | 1.77 | 1.3 |
| CCAGACUUUAAGCAAUCGGUC [Fam1B.1 aminoacylation ribozyme variant] | 1.04 | 0.821 | 0.874 | 1.11 | 0.94 | 0.922 |
| CCAGUUCAAACAAUCGGUCUG [Fam1A.1 aminoacylation ribozyme variant] | 14.2 | 10.7 | 1.34 | 1.41 | 1.5 | 1.39 |
| CCAUACUUCAAGCAAUCGGGC [Fam1B.1 aminoacylation ribozyme variant] | 2.06 | 1.15 | 1.53 | 1.95 | 1.61 | 1.73 |
| CCAUACUUCAAGCAAUCGGUG [Fam1B.1 aminoacylation ribozyme variant] | 24.4 | 6.14 | 5.58 | 4.16 | 8.33 | 4.3 |
| CCAUACUUCAAGCAAUUGGUC [Fam1B.1 aminoacylation ribozyme variant] | 1.13 | 0.625 | 0.689 | 0.743 | 0.667 | 0.762 |
| CCAUACUUCCAGCAAUCGGUC [Fam1B.1 aminoacylation ribozyme variant] | 0.952 | 0.815 | 1.06 | 1.45 | 1.1 | 1.39 |
| CCAUUCUUCAAGCAAUCGGUC [Fam1B.1 aminoacylation ribozyme variant] | 2.79 | 1.68 | 0.939 | 1.04 | 0.992 | 0.976 |
| CCAUUUCAAACAAUCGGUCUG [Fam1A.1 aminoacylation ribozyme variant] | 7.75 | 5.46 | 1.13 | 1.03 | 1.19 | 1.04 |
| CCCCACUUCAAGCAAUGGGUC [Fam1B.1 aminoacylation ribozyme variant] | 1.88 | 1.96 | 0.959 | 1.32 | 0.835 | 1.67 |
| CCCCACUUCAAGCACUCGGUC [Fam1B.1 aminoacylation ribozyme variant] | 11 | 4.4 | 2.79 | 2.26 | 3.08 | 2.79 |
| CCCCACUUCAAGCCAUCGGUC [Fam1B.1 aminoacylation ribozyme variant] | 10 | 4.79 | 2.87 | 2.33 | 2.63 | 2.82 |
| CCCCAGUUCAAGCAAUCGGUC [Fam1B.1 aminoacylation ribozyme variant] | 7.95 | 7.44 | 2.77 | 2.48 | 3.86 | 2.65 |
| CCGCAAUUCAAGCAAUCGGUC [Fam1B.1 aminoacylation ribozyme variant] | 18.7 | 14.2 | 1.73 | 1.94 | 1.9 | 2.12 |
| CCGCACUCCAAGCAAUCGGUC [Fam1B.1 aminoacylation ribozyme variant] | 6.39 | 5.87 | 0.991 | 1.14 | 0.931 | 1.7 |
| CCGCACUUCAAGCAAUCAGUC [Fam1B.1 aminoacylation ribozyme variant] | 18.8 | 7.12 | 0.798 | 0.854 | 0.943 | 0.859 |
| CCGCACUUCAAGCAAUCGGCC [Fam1B.1 aminoacylation ribozyme variant] | 6.69 | 6.53 | 1.71 | 1.97 | 1.61 | 3.21 |
| CCGCACUUCAAGCAAUCGGUG [Fam1B.1 aminoacylation ribozyme variant] | 55.1 | 8.54 | 7.36 | 5.07 | 10.3 | 5.59 |
| CCGCACUUCAAGCAAUCGUUC [Fam1B.1 aminoacylation ribozyme variant] | 1.26 | 0.659 | 0.742 | 0.8 | 0.688 | 0.944 |
| CCGCACUUCAAGUAAUCGGUC [Fam1B.1 aminoacylation ribozyme variant] | 15.6 | 14.5 | 1.4 | 1.3 | 1.54 | 1.37 |
| CCGCACUUCACGCAAUCGGUC [Fam1B.1 aminoacylation ribozyme variant] | 1.66 | 1.85 | 1.54 | 1.36 | 2.34 | 2.1 |
| CCGCACUUCCAGCAAUCGGUC [Fam1B.1 aminoacylation ribozyme variant] | 0.932 | 0.883 | 0.995 | 1.35 | 1.04 | 2.03 |
| CCGCAUUUCAAGCAAUCGGUC [Fam1B.1 aminoacylation ribozyme variant] | 16.8 | 14.3 | 1.92 | 2.36 | 2.72 | 2.48 |
